# Assay results reported in patent publication US20160145328A1 (published 2016).
# Residue numbers refer to the chain shown, from its start. In names and notes the source's numbering stands.
# B1: scFv DP47 VH A33D - linker - common VL (scFv, name in Kabat numbering)
# scFv: QVQLLESGGGLVQPGGSLRLSCAASGFTFSSYDMSWVRQAPGKGLEWVSAISGSGGSTYYADSVKGRFTISRDNSKNTLYLQMNSLRAEDTAVYYCAKSYGAFDYWGQGTLVTVSSGGGGSGGGGSGGGGSTDIQMTQSPSSLSASVGDRVTITCRASQSISSYLNWYQQKPGKAPKLLIYAYSDLQSGVPSGFSGSGSGTDFTLTISSLQPEDFATYYCQQLMTHPTTFGQGTKVEIKR
# notes: also called A33D (scFv)
# B2: scFv DP47 VH S31D - linker - common VL (scFv)
# scFv: B1 scFv with S31D, D33A
# notes: also called S31D (scFv)
# B3: scFv DP47 VH S35G - linker - common VL (scFv, name in Kabat numbering)
# scFv: B1 scFv with D33A, S35G
# notes: also called S35G (scFv)
# B4: scFv DP47 VH Y32E - linker - common VL (scFv)
# scFv: B1 scFv with Y32E, D33A
# notes: also called Y32E (scFv)
# B5: scFv DP47 VH T28R - linker - common VL (scFv, name in Kabat numbering)
# scFv: B1 scFv with T28R, D33A
# notes: also called T28R (scFv)
# Biological target: T1, protein A (UniProt P38507 37-477)
# T1 construct: also called Protein A superantigen
# Test: Heat/Cool phage ELISA: phage-displayed scFv, 80 C 10 min then 4 C 10 min, captured on coated protein A; signal as % of untreated sample
# Procedure: The aggregation-resistance of clones was analyzed by measuring retention of signal after heat incubation in a phage ELISA format (McCafferty et al., 1990; Jespers et al., 2004). Wells of a Nunc Maxisorp Immuno-plate were coated overnight with protein A at a concentration of about 5 μg/ml in phosphate-buffered saline (PBS). The plate was washed once with PBS and blocked with about 4% (w/v) milk powder diluted in PBS (MPBS). Single colonies were picked from agar plates and grown overnight in 2×TY medium (containing about 16 g/L tryptone; about 10 g/L yeast extract; about 5 g/L NaCl, pH 7.0) supplemented with about 15 μg/ml tetracycline shaking at about 30° C. Cells were removed by centrifugation and phages were biotinylated directly in the culture supernatant by adding biotin-PEO₄-N-hydroxysuccinimide (Pierce; about 50 μM final concentration). For heat selection, supernatant was first incubated at about 80° C. for about 10 min and then at about 4° C. for about 10 min. Supernatant was added to the blocked ELISA wells. After three washes with PBS, bound phage particles were detected using an Extravidin-HRP conjugate (Sigma) and 3,3′,5,5′-tetramethylbenzidine (TMB) substrate. Absorbance was calculated by subtracting measurements at 450 and 650 nm.
# The DP47-CDR1 mutants described above were paired with a common single variable light chain (VL; SEQ ID NO: 3) via a linker (SEQ ID NO: 4) in a scFv format (see the Materials and Methods section for full experimental details). […] Correctly folded scFv were captured by protein A ELISA and the absorbance signal of the treated sample was calculated as a percentage of the untreated sample.
row,Binder,Retained binding to protein A [%]
1,B1,22
2,B2,29
3,B3,5
4,B4,27
5,B5,4
